Measurements: the supplement of paper PMC9170038

test system: MS2 coat protein; assay: apparent KD of MS2 coat protein; higher = weaker reporter binding; details: Eterna round: R107; input ligand: arginine 13.2 mM
Protocol: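 RNA-MaP round R107: designed RNA switches with theophylline, tryptophan, arginine or FMN aptamers are transcribed on-chip within common flanks. They are titrated with SNAP-549-labelled MS2 coat protein in RNA-MaP buffer (100 mM Tris pH 7.5, 80 mM KCl, 4 mM MgCl2), without ligand or with the indicated ligand. Median apparent KD per design.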

Row | Sequence | apparent KD of MS2 coat protein [nM]
1 | ACGCUGCAUAGGAAAACUAUGUAGCGAAAUCGAGGACCGGUACGGCCGCCACUCGUCCUCAACAUGAGGAUCACCCAUGUAAUAA [Mat - Exclusion - Trytophan A - D8] | 20.8
2 | AGACUGUAAAGUCUACCGGUCAACAAUAAUCGAGGACCGGUACGGCCGCCACUCGAUGUGAUAUACACAUGAGGAUCACCCAUGU [Tryptophan A 16] | 17.2
3 | UAAUAAAUAAAUCCAAGGUGAAGGUCAGAUACCAGCCAGAUAACUGGCCCUUGGCAGCUGAAUAAACUUGAGGAUCACCCAGGUA [TheoAS 27 #OpenEnded #MS2Late #AlternativeMS2] | 45.4
4 | GGUGGACUUUCGGCCGCCACUGAGAGAGUCGUGUGAACAUGAGGAUCACCCAUGUAAUAUAUAUACAGGACCGGGAGGGUUGUCC [4.O] | 20.6
5 | AUAACCCUUGACUAAAACACUAAAUCAGUUCGAGGACCGGUACGGCCGCCACUCGUGUCAAGACAUGAGGAUCACCCAUGUACCU [Isbe] | 32
6 | ACCUACACGGAGACGUGUAGGAGUAAUGAUACCAGCAUGGAGACAUGCCCUUGGCAGCGUUACAUGAGGAUCACCCAUGUACGUU [ETHA #3] | 10.4
7 | AGGACAUGAGGAUCACCCAUGUACACUGAAGGAGCGUCGAGAACGACAGGUAGGUCGCAGGCUAAGGAAGGUGAUGCUCAAGAAG [Exclusion Arginine A GF6] | 28.2
8 | UGUAUGGACUGAAGGAGCGGGUUGAUAAUCUGAGGAUCACCCAGGUAAAAGGCGAAAGCCACCCAGGUAGGUCGCAGUCCAUACU | 23.8
9 | UAAUAAAUAAAUCCAAGGUGUAGGUCAGAUACCAGCCAGAUAACUGGCCCUUGGCAGCUGAAUAAACCUGAGGAACACCCAGGUA [TheoAS 24 #OpenEnded #MS2Late #AlternativeMS2] | 26.7
10 | GGAUAGGACACGGCCGCCACUAGCUAGGAUACUAGCAACAUUUGGGUACAUGAGGAUCACCCAUGUAGGACCGGGUGUCCUAUCG | 64.4
11 | GGAUAGGACACGGCCGCCACUAGCUAGGAUACUAGCAACAUUUCCUCACAAGAGGAUCACCCUUGUAGGACCGGGUGUCCUAUCG | 84.9
12 | GGCCCACAUGAGGAUCACCCAUGUGUGGAUACCAGCCUCAUUUAGGGCCCUUGGCAGCCAGAUAGUAACAAGUCCGAAACACAGA [theeternabot_sameState_MS2_Theo_A_24] | 26.2
13 | AUCGUACCUGAUGAUACCAGCAUGUGCUCGUAACAUGAGGAUCACCCAUGUGAUCAGUGAUGCCCUUGGCAGCAUGAUCGGUGCA [Same State - Theophylline B (Freestyle 18)] | 94
14 | AUACAUGAGGAUCACCCAUGUUAUAGUGAAGGAGCGACAUUUAUGUCAGGUAGGUCGCACUGUUGUUUAAUGAUUCUUGGAUCUU [#20 Exclusion - Arginine A] | 16
15 | UAAACUACACAUGAGGAUCACCCAUGUGGCCGAGGACCGGUACGGCCGCCACUCGUGUGUUAAUAAUAGAACUGCAAGGUUCUGU [Enindidiso] | 75.6
16 | GGUAUGUAUUCGGAAACGAAUGCAUACCAACGAGGACCGGUACGGCCGCCACUCGGGCCGUGAUCACAUGAGGAUCACCCAUGUA [Ex Tryptophan A 5] | 29.8
17 | AGCACUGUGACGGCCGCCACUACAUAUAGGGUGGUCAGGCCCAUAAUACAUGAGGAUCACCCAUGUAGGACCGGGUCUCAGUGCA [Omei Trp Exc B A v12] | 11.7
18 | GCACCAGGUACGGAUACCAGCUGCCAGCGUUACAUGAGGAUCACCCAUGUGAUCUGAUAUAGCCCUUGGCAGCUGUACCUGGUGC [SSThB NP+V+V2 #3 +-Same Structure] | 43.4

Row | Sequence | apparent KD of MS2 coat protein [nM]
19 | UCGCUCUGGGUGAAUCCCAGAGAUGUGGAAGGAGCGGAGGAAACUCCAGGUAGGUCGCCAUCGAACAUGAGGAUCACCCAUGUAC [Same State - Arginine A (Freestyle 28)] | 35.6
20 | ACUAGUUGUGCAGAUACCAGACAUGAGGAUCACCCAUGUUUGGGAUCUAAUGAUCAUCCUGUCCCUUGGCAGCUGUACAUCUAGA [Omei Theo B Exc v2] | 51.9
21 | AAUAAUAAGGCGGCCGCCACUAAACAUGAGGAUCACCCAUGUCUCGAGCGCUUGCGUUUGGGAAGUAGGACCGGGCCAAUAAUAA [Exclusion - Tryptophan B (Freestyle 5)] | 14.2
22 | AGAUAACAUGGUUUAAUAAGUUAAACUGAUACCAGUGUAUAUAAUCACCCUUGGCAGCAGCAACAUGAGGAUCACCCAUGUAAUA [JR_SSTheophyA_Sub013] | 16.2
23 | GCUGCCAUACGAAGGAGCGCUGGUGUAAUGAGGCGAACAUGAGGAUCACCCAUGUGGCAGAAGCAGGUAGGUCGCGUAUGGCAGC [EAB #15] | 12.9
24 | CGGACAUGAGGAUCACCCAUGUACACUGAAGGAGCGUCGAGAACGACAGGUAGGUCGCAGGUUGAGGAUGGUGAUGCUCAGGUAG [Exclusion Arginine A GF 3] | 37.1
25 | CCCUCCAGAACGGCCGCCACUAAAGGGUUGUGUGCGACUCCGGAACAUGAGGAUCACCCAUGUCUUAGGACCGGGUUCCCUUCUA [theeternabot_sameState_MS2_Trp_B_30] | 58.9
26 | GUAGGUCUCAUGGGUGGACCUACACUGGAAGGAGCGAGCGAAAGCUCAGGUAGGUCGCCAGAAACAUGAGGAUCACCCAUGUAAU [(A)''-(M)'-(A)'-(Arg1)-(Arg2)-(M1)-(M2)_Design1] | 72.3
27 | UAUAUAUAUAUGGAUACCAGCAGAGAAAACGUUUAUCCUAACAUGAGGAUCACCCAUGUAUGCCCUUGGCAGCUGUGUAUAUAUA [8.H] | 16.7
28 | GAUUUAACAAAAGUUAGAUCAGUGGGUGAACGAGGACCGGUACGGCCGCCACUCGGACAUGAGGAUCACCCAUGUCCAUGUGAAA [AstrosExyTryA#20] | 15.3
29 | AUGUCAUUGGUGUAGCUGUGAAAUGGCGAUACCAGCGUGGAAACACGCCCUUGGCAGCGCCAAAACAUGAGGAUCACCCAUGUUA [Pardubice] | 36.2
30 | ACCCAUAAUUGGGCGGGUGGAUUGAGUGAUACCAGUCGUAUACAUGACCCUUGGCAGCACCGACAUGAGGAUCACCCAUGUGCCA [Same State Theophylline A GF23] | 25.9
31 | UUCAGCUAGUCGGCCGCCACUACAUGAGGAUCACCCAUGUAGGUCCACACUGCUUCGGCAGUGAGUAGGACCGGGACUAGCUGAG | 7.07
32 | UCGAAUGCGGCGGCCGCCACUCGCGGAUAACGAUAGCUUAACAUGAGGAUCACCCAUGUGUCAUGGAGGACCGGGCCCAUACGGU [kmkmullin] | 13.5
33 | AAUUACAUGAGGAUCACCCAUGUGGCACAACGAGGACCGGUACGGCCGCCACUCGGUGCUGUACCACAAAACAUGCACGGGAAAG [theeternabot_sameState_MS2_Trp_A_6] | 33.1
34 | AUGCAUAGCCGAAGGAGCGCAGUAGGAUGACAUGAGGAUCACCCAUGUGUGUGAUGUGGAUUGCAGGUAGGUCGCGGAGUGGUAU [Exclusion - Arginine B (Freestyle 5)] | 47
35 | AGUUACUCGAACAUGGUUGACGAGUGGCAACGAGGACCGGUACGGCCGCCACUCGAAUAAACAUGAGGAUCACCCAUGUACAAAU [T''-M'-T'-T-MS2 - Design 10.b] | 61.9
